Sequences and labels used below:
B1: Azoarcus group I ribozyme (parent)
chain: GUGCCUUGCGCCGGGAAACCACGCAAGGGAUGGUGUCAAAUUCGGCGAAACCUAAGCGCCCGCCCGGGCGUAUGGCAACGCCGAGCCAAGCUUCGGCGCCUGCGCCGAUGAAGGUGUAGAGACUAGACGGCACCCACCUAAGGCAAACGCUAUGGUGAAGGCAUAGUCCAGGGAGUGGCGAAAGUCACACAAACCGG

84 variants from the RNAGym collection of RNA variant scans (doi:10.1093/molbev/msab373) can be followed below.

Variants of B1 are the subject of the data set. As to the kind of experiment: reverse-splicing fitness (ratio to wild type); higher = more active; in vitro selection; Mg2+ level not given. The gist of the method: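 An in vitro group I ribozyme library with randomized positions was T7-transcribed and gel-purified. In triplicate, 10 pmol RNA in EPPS pH 7.5 was reacted with 50 pmoles of a 30-nt RNA substrate for 1 h at 37 °C across several added MgCl2 levels (1–48 mM), then stopped with EDTA. Products were reverse transcribed from a substrate-complementary primer, PCR-amplified and sequenced (HiSeq 4000). Fitness is a variant's read proportion after selection over that before, normalised to wild type.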
A111C A120G A145G C169G U176A: the reverse-splicing fitness came out at 0.036.
Then A111U A120U A145G C150A C169G U176C, with 0.00547.
The result for A111U A145G C150A C169A U176C reads 0.0233; that for A111C A120U A145C C169A U176C, 0.00231; that for C82A A120C A145G C150A C169U U176G, 0.00765.
As for C82A A111G A120C C150A C169A U176G, the reverse-splicing fitness came to 0.00754.
The result for C82U A111G A120C A145C C150G C169A U176G reads 0.00425; that for C82G A111C A120C A145G C150G U176G, 0.00667; that for C82G A120C C150U C169U U176G, 0.00634.
Then C82G A111U A120C A145C C150U C169G U176G, with 0.00776; and A111C A120U A145C C150U C169A U176C, with 0.00249; and C82G A111G A120C A145G C150U C169U U176A, with 0.0133.
Turning to A111G A120U A145G C150G U176A, the reverse-splicing fitness stood at 0.00779.
Then C82G A111U A145U C150U C169G U176G, with 0.00659; and A111G A120G C150U C169A U176C, with 0.0419.
As for A120G A145G C150A, the reverse-splicing fitness is 0.0988.
Then C82U A111C A145U C169U, with 0.0114; and C82A A111G A120G C150G C169A, with 0.00929; and A111U A145C C169A U176C, with 0.00885.
Then C82U A111G C150G C169U U176G, with 0.00511; and C82A A145G C169A U176G, with 0.00573.
On to C82G A111U A120C A145C C150A U176G, for which the reverse-splicing fitness is 0.0066.
Then C82U A111G A145C C150U C169U, with 0.00947.
Then A120U C169U U176A, with 0.0922; and C82A A111C A120U A145C C150U C169G U176G, with 0.00286; and C82A A111U A120C A145C C150U C169G U176A, with 0.0356.
For the variant A111U A120C A145G U176G, the reverse-splicing fitness was 0.0419.
Then C82G A111U A120C C150A C169G, with 0.00894; and C82U A111G A120C A145G C150A C169A U176A, with 0.0157.
The result for C82G A120U A145U C150G C169U U176G reads 0.00234.
For the variant C82G A111C C150G C169G U176G, the reverse-splicing fitness was found to be 0.00603.
The result for A111G A120G C150U U176C reads 0.0801; that for C82U A111U A120C U176C, 0.0191; that for C82U A111G C150U C169A, 0.00959.
The result for A120G C150G reads 0.0593.
The result for C82G A111G A120U A145U C150A C169A U176C reads 0.00223.
Take A111U A120C A145G C169U U176C: the reverse-splicing fitness was 0.046.
As for A145U C169U U176A, the reverse-splicing fitness was 0.109.
The result for A120C C169U U176A reads 0.155.
Then C82G A120U A145G C150A C169U U176A, with 0.00465; and C82A A111U A145C C169A U176C, with 0.00816; and C82G A111G A120U A145G C150A C169U, with 0.00426.
Consider C82A A111C A120G A145U C150G U176G, for which the reverse-splicing fitness was 0.0034.
Then C82G A111G A145U U176C, with 0.28; and C82G A111C A120G C150G U176G, with 0.00284; and C82U A111C A145C C150A C169G U176A, with 0.024.
The result for C82U A111C A120U A145G C150G C169A U176A reads 0.0114; that for C82G A111U A120C C150G C169G U176G, 0.00747; that for A111C C150G C169A, 0.00834.
Then C82A A111C C169A, with 0.00822; and A111G A120G A145G C150U C169A U176G, with 0.00612.
Consider C82U A111C A120U A145G C150A C169G, for which the reverse-splicing fitness turned out to be 0.00517.
For C82U A111U A120C C169G U176A, the reverse-splicing fitness is 0.0148.
As to C82U A111U A120U A145U C150U C169A U176G, the reverse-splicing fitness came out at 0.00202.
The result for C82A A111G A120U C150U U176C reads 0.0108.
Then C82A A111G A120U C150U U176G, with 0.00388; and C82A A111G A120U C150G U176A, with 0.00446.
Then C82G A111U A145C C150G C169A U176A, with 0.00976; and C82U A111C A120G A145C C150U C169G U176C, with 0.0105.
As to C82G A111G A145G C150A C169A U176G, the reverse-splicing fitness worked out at 0.00692.
The result for A111U A120C A145C C150U C169A U176G reads 0.00529; that for C82A A111U A120G A145G C150G C169A U176C, 0.0133.
Regarding C82A A111U A120G A145G C150G C169A U176A, the reverse-splicing fitness was 0.0132.
Then C82A A120C A145U C150U U176A, with 0.0269; and A111U A120C A145U C150G C169A U176C, with 0.00757.
The result for C82A A111U A120C A145G C150U C169U U176G reads 0.00781.
The result for A111G A120G U176A reads 0.0836; that for C82G A111G A145G C150G U176G, 0.00812.
With C82G A111U A145C C169A U176G, the reverse-splicing fitness was 0.00501.
Regarding C82G C169U U176A, the reverse-splicing fitness is 0.0135.
The result for A111C A120U A145C C150G C169G U176A reads 0.00265; that for C82G A111C A120U A145G C150A C169G U176G, 0.00277; that for C82U A120G A145G C150A C169U U176C, 0.0166.
The result for C82G A120G C150G C169G U176A reads 0.00768; that for C82U A111C A120G C150A U176C, 0.0182.
The result for C82U A111C A120G C150A U176G reads 0.00579; that for C82A A111U A120U A145G C150G C169U, 0.00854.
For C82A A111U A120C C150A C169G U176C, the reverse-splicing fitness is 0.0312.
On to C82U A111G A145U C169G U176G, for which the reverse-splicing fitness turned out to be 0.00474.
As for C82G A111U C169U, the reverse-splicing fitness was determined as 0.0134.
On to C82G A111G A120C A145U C150A C169A U176C, for which the reverse-splicing fitness was found to be 0.0161.
Then C82A A111U A120U A145C C150G C169A U176G, with 0.00234.
The result for C82U A111G A120C A145G C150U C169A U176A reads 0.0135; that for A120U C150A C169U U176G, 0.00432.
